From the supplement of paper PMC9170038

These sequences were tested on K4 kissing-loop RNA reporter (assay: apparent KD of K4 kissing-loop reporter; higher = weaker reporter binding). Details: Eterna round: R107; input ligand: FMN 200 uM.
Procedure: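 RNA-MaP round R107: designed RNA switches with theophylline, tryptophan, arginine or FMN aptamers are transcribed on-chip within common flanks. They are titrated with a labelled K4 kissing-loop RNA reporter in RNA-MaP buffer (100 mM Tris pH 7.5, 80 mM KCl, 4 mM MgCl2), without ligand or with the indicated ligand. Median apparent KD per design.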
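Further: bound reporter read as fluorescence of individual clusters on recovered sequencing chips by microscopy, with normalized cluster intensities fitted with a binding model.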

Going from “UGACAUUGCUCAGAUACCAGACAUGAGCAUCAGCCAUGUGCCAAAUACGUACAAAUAAAUGUCCCUUGGCAGCUGAGCAAUGUCU [TheoBX 12]” to “GGUUUAUAGGAGGAUACCAGUACGGAUAAAGUACGUUAAUAGUAGAGUGAUGUUCUAAAGUACCCUUGGCAGCUUAGAGUGAGUU [ExTheophylB.L]”, the “apparent KD of K4 kissing-loop reporter” value rises from 66.7 nM to 105 nM (1.6-fold).

First: AACAGCAAUGCGGCCGCCACUUCGAGGUCAGUGAUGUUGACAGAAUUAAAUAAAGAUCCCAAGAGGAGGACCGGGCAGUGCUGUU [whbob_SS_Tryp_B_t24]
Second: UUUCGGUUCUGAGGAUAUUCGGACAAAUAUAGUGAUGUUGUAUAAGGAGGAGGGUGUUGGCAGUGAGGAGAAGGCAGAAGAGGAU [ExFMNB.T]
The “apparent KD of K4 kissing-loop reporter” value of the first is 1.9-fold lower: 534 nM for the first, 1000 nM for the second.

First: GGAUAGGACAGAGGAUAUCUCUGAGGCAAGAAAACUUGUCUCUAAGGAGAUGACUCAGUGAUGUUGAGAGAAGGCUGUCCUAUCG [FmnBX 12 - #SwitchBubble #StaticStem]
Second: GGGAGUGAUGUUCCCACGUUGUCGGUCCUUCGAGGACCGGUACGGCCGCCACUCGCGACCCAGUGAUGUUGGGAUUCACCGUACC [Exclusion Tryptophan A Gf 13]
The “apparent KD of K4 kissing-loop reporter” value of the first is 1.9-fold lower: 230 nM for the first, 431 nM for the second.

“AAAUAAAGCAGUCACCCAGUGAUGUUGGAAGGAGCGUGCGAAAGCACAGGUAGGUCGCCAAAACCUAAUACUGGCUGCUAAAUAA [#03 K4 Arginine A Exclusion]” and “CGUUUAUAGCAGGAUACCAGUGCGGAUAAGGUGCGUUAAUAGUAGAGUGAUGUUCUAAAGUACCCUUGGCAGCUUAGAGUGAGUG [#21 K4 Theophylline B Exclusion]” are within 1.5-fold of each other in “apparent KD of K4 kissing-loop reporter” value: 242 nM for the first, 202 nM for the second.

First: AACUGGGUUCGUGAUACCAGCUCACACAUGAGUGAUGUUCAUGUAGUGGGCAAAAUGUGGAGCCCUUGGCAGCACUGUGACCACG [XTheo-B2]
Second: CCAUCGCUAUUCGAUACCAGCUACUUAGUGAUGUUAAGUUUUUAUCCACUGUAGGUGGAAAGCCCUUGGCAGCGAAUAGUGAUGG [Theophylline B K4 26]
The “apparent KD of K4 kissing-loop reporter” value of the first is 5.5-fold lower: 81.1 nM for the first, 442 nM for the second.

“UCGAACGAUGGAAGGAGCGCUCGUCAGCCCUGCGAGUGAUGUUCGUGGGUAAAUAGUCGCGAGCAGGUAGGUCGCCAUCUUGAGC [Zainsotima]” and “CCGGAGGAAGUCGCUUUUCCUGUGGCAUAGAAGGAUAUCCAAUUAAGGAGAAGGUCUAUCUGCCUUAGUGAUGUUAGGAAGUAGA [theeternabot_sameState_KL_FMN_A_23]” are within 1.5-fold of each other in “apparent KD of K4 kissing-loop reporter” value: 123 nM for the first, 172 nM for the second.

“UGCGGUAGUGAUGUUACCUCAUUAUACUAGCGAGGACCGGUACGGCCGCCACUCGACUUCCUCCACGCCUAGGCCUCUACGUUCA [theeternabot_sameState_KL_Trp_A_36]” and “GUGAAGGAGCUGCAGUGAUGUUGCAGAGACUAGGAUAUCAGGAAACUGAGAAGGAGUCAACUCCUUCACCUAGACACUGCAGAAA [[F]''-[K1]-[K2]-[F1]-[F2]-[F2]'-[F1]'-[K]'_Design1]” are within 1.5-fold of each other in “apparent KD of K4 kissing-loop reporter” value: 136 nM for the first, 110 nM for the second.

Compared with “AAAGUUGAUGAGUUGGGUAUGUGUUCCGAAGGAGCGAGAAUUAUCUCAGGUAGGUCGCGGAACAUGAGUGAUGUUCAUGUAUAAA [KL-XArg-A7 #analogue]”, “UGGGAUGGGCGAGGAUAUGGUGAUGUUUGGGUUGUUAGUGAUGUUGGUGAUGCUGGUGGUGUUUGUCCAGAAGGCGCGGUUUUUU [Bdazzled 3]” is 2.2-fold lower in “apparent KD of K4 kissing-loop reporter” value: 345 nM for the first, 154 nM for the second.

“CAUAGGAAACUAUGUAUCUCUCCGACUGAAGGAGCGCGUGAAAACGCAGGUAGGUCGCAGAAUUUAACGGAGAGUGAUGUUCUCU [Ex Arginine A K4 10]” and “GCAAAACGCAGUGAUGUUGCGAUAUCGGAAGGAGCGCGUGAAAACGCAGGUAGGUCGCCGAUUCAGUGAGUAUCUCGCUGUUUGC [Arginine A K4 18]” are within 1.5-fold of each other in “apparent KD of K4 kissing-loop reporter” value: 345 nM for the first, 258 nM for the second.

Going from “ACGCUGGUGAAUAACACUAGCGAAUAAUUCCGAGGACCGGUACGGCCGCCACUCGGCUAACUGCGAGUGAUGUUCGAUAAUAAAA [Mat - Mod of OpenEnded 3 - D10]” to “UGGACUAGUGUGAGUGAUGUUCACUUCGAUACCAGCAGAGCGAUCUGCCCUUGGCAGCGAGUUAACUGCCGAAAGGCAAGGUCCA [Theo B SS t9a]”, the “apparent KD of K4 kissing-loop reporter” value rises from 78.5 nM to 457 nM (5.8-fold).

First: AAGGCCACGAGAAGGAGCGUGUUGUGGAGUGAUGUUCCAUUGUAGACCUAAGGUCUGCGAGCACAGGUAGGUCGCUCGUGGUCAA [whbob_SS_Arginine_B_2t150]
Second: AGUAGGAAACUACAAUCCUCUCUUACUGAAGGAGCGCGUGAAAACGCAGGUAGGUCGCAGGAUUGGAGAGUGAUGUUCUCCUUAA [Ex Arginine A K4 17]
The “apparent KD of K4 kissing-loop reporter” value of the first is 2.9-fold lower: 108 nM for the first, 311 nM for the second.

First: AAUAAAAUCACGGCCGCCACUGAUUAGCAUAUUAGGAGUGAUGUUUCUAUGACUAUAUAAUUGAACAGGACCGGGUGAAUAUUUA [#20 K4 Tryptophan B Exclusion]
Second: GUAUCGCUAGGAGGAUAUUUCAAAUAAUAAAUAAAUGGUUAUACGGAGUGAUGUUCCGAUUUACGGAAAGAAGGCCUAGUGAUAC [FMN B 3]
The “apparent KD of K4 kissing-loop reporter” value of the first is 3.6-fold higher: 424 nM for the first, 118 nM for the second.

Going from “CUUCGUAAAGGCCCAGUGAUGUUGGGCACUCGAGGACCGGUACGGCCGCCACUCGCUCCCUAAGUCGCGCGCGUGGGCCACCGCC [Xeteoredre]” to “GCAGUGAUGUUGCACGAGUAGGGUAGAGUACGAGGACCGGUACGGCCGCCACUCGUACGGAACUCGCUAAUUUAUGGAAUGGUGA [I]”, the “apparent KD of K4 kissing-loop reporter” value rises from 111 nM to 465 nM (4.2-fold).

Going from “CGAGUGAUGUUCGUUCGUAUAUUUGGGUGACAGGAUAUGCGGAAACGCAGAAGGGUCGCCUUCGGGUUACCCGAAUUGGCGUUUU [FMN A Model 2]” to “AUCAUAUCUAGUCAGCCCAGUGAUGUUGGGCGAGGACCGGUACGGCCGCCACUCGCUUCGUUGCGGUGGCUGGCGUUACGACAAA [Inveusma]”, the “apparent KD of K4 kissing-loop reporter” value falls from 444 nM to 130 nM (3.4-fold).

First: AAUAAGGUCGCCGAUACCAGCGCAGGCAGAGCAAAGCUCUGCCAGGUAGUGAUGUUACCGCGCCCUUGGCAGCGGUGGCACGACC [Omei KL Theo B SS C v2]
Second: UUUCUACCGGGAAGGAGCGUGAAUGAUAAUGGAUAUAGUGAUGUUAUAUAUAAGAACGAAUCGCAGGUAGGUCGCCCGGAUGACU [SSArgB.S]
The “apparent KD of K4 kissing-loop reporter” value of the first is 1.7-fold higher: 523 nM for the first, 311 nM for the second.

First: AAAUAAAGGGCGGCCGCCACUGAUCGCCUCCGCGUGGGUAUGUAGUGAUGUUAUAUGGCCGCCAUCAGGACCGGGCCAAAUAAAA [#10 K4 Tryptophan B Same State]
Second: CGAGAAUGUCGACAGUCAUCGGUCCAUGCACGAGGACCGGUACGGCCGCCACUCGAGCGUGGCAGUGAUGUUGCCAGCGCACUAA [KL-XTryp-A14]
The “apparent KD of K4 kissing-loop reporter” value of the first is 2.1-fold higher: 214 nM for the first, 99.6 nM for the second.

First: AAACAUCACUGGGAGUGAUGUUCUCAGUGACGAGGACCGGUACGGCCGCCACUCGCGAGAGAUAUAGGUAAGUAAUGACAUCAUU [Excl Tryptophan A V5]
Second: UCCUAGGUCUUCAGGCGAAAGCCCUGCGAAGGAGCGUGCGAAAGCACAGGUAGGUCGCGCAGUGAUGUUGCACCUAGGUAAUAAA [#SwitchBubble 21 #K4Late]
The “apparent KD of K4 kissing-loop reporter” value of the first is 2.5-fold lower: 340 nM for the first, 843 nM for the second.

First: UAGCAUUUGCUCGAGUGAUGUUCGAGCGAAGGAGCGCGAGAAAUCGCAGGUAGGUCGCGCUCGAACUAUGAGCGAUCAUUUAUUA [Arg A Ex t2c]
Second: ACCCUACUCGGGCGGCUAUACAGUUAAGCUAAGGAUAUGUAUUCGUACAGAAGGUAGAAGAAGCCGAGUGAUGUUCGACACGCCC [theeternabot_sameState_KL_FMN_A_24]
The “apparent KD of K4 kissing-loop reporter” value of the first is 2-fold lower: 284 nM for the first, 557 nM for the second.

First: GGGAAGAAGGCGGCCGCCACUGCAGAAGAGACAGAGAGAGAAGAAGAGGAGUGAUGUUCCAAGAACAGGACCGGGCCAAGAAGGG [whbob_SS_Tryp_B_t28]
Second: ACUGGGUUGACGAAAGUCAACAAAAGAGAAGGAGCGCACGAAAGUGCAGGUAGGUCGCUCAUCCAGUGAUGUUGGAUCAUCCAGA [#SwitchBubble 17 #K4Late]
The “apparent KD of K4 kissing-loop reporter” value of the first is 2.7-fold lower: 167 nM for the first, 444 nM for the second.

First: AGUUCCGACGGAAGGAGCGGACAGUAUUGACGGAAAGGUGCAAGUGAUGUUUGCGCUUGUGUCCAGGUAGGUCGCCGUCGGAACA [Arg B SS t13]
Second: AGUGGACAUGUCUAGAGUGAUGUUCUGGAUACCAGACACGAAAGUGUCCCUUGGCAGCCGGAGUGAUGUUCUGGAGUUCACUAAA [Omei KL Theo A Exc B v8]
The “apparent KD of K4 kissing-loop reporter” value of the first is 6.7-fold lower: 91.3 nM for the first, 612 nM for the second.

Going from “UGUCGAGUGAUGUUCGAUGUGGUGCAUGCAGAGGAUAUAGGGUGGGCUAGAAGGCUGAAAAGUGCUUCGAGUGAUGUUCGAAGAU [Exclusion FMN A GF9]” to “GCCGCCGCGGCAGGAUAUAGGUUCAUGGAGUGAUGUUCCAUAACCCGAGUGAUGUUCGUUAUCCGCCUAGAAGGGCCGCGGCGGC”, the “apparent KD of K4 kissing-loop reporter” value rises from 129 nM to 201 nM (1.6-fold).

“GCCGUACGCAUGGAUACCAGCUAUUAGAGUGAUGUUCUAUGGCCCUGCCAGAGUAGCUGUAGCCCUUGGCAGCCAUGCGUACGGC” was tested, and the “apparent KD of K4 kissing-loop reporter” value was 148 nM.

Same assay, conditions: Eterna round: R107; input ligand: arginine 13.2 mM

Going from “UGACAUUGCUCAGAUACCAGACAUGAGCAUCAGCCAUGUGCCAAAUACGUACAAAUAAAUGUCCCUUGGCAGCUGAGCAAUGUCU [TheoBX 12]” to “GGUUUAUAGGAGGAUACCAGUACGGAUAAAGUACGUUAAUAGUAGAGUGAUGUUCUAAAGUACCCUUGGCAGCUUAGAGUGAGUU [ExTheophylB.L]”, the “apparent KD of K4 kissing-loop reporter” value rises from 30.7 nM to 157 nM (5.1-fold).

First: AACAGCAAUGCGGCCGCCACUUCGAGGUCAGUGAUGUUGACAGAAUUAAAUAAAGAUCCCAAGAGGAGGACCGGGCAGUGCUGUU [whbob_SS_Tryp_B_t24]
Second: UUUCGGUUCUGAGGAUAUUCGGACAAAUAUAGUGAUGUUGUAUAAGGAGGAGGGUGUUGGCAGUGAGGAGAAGGCAGAAGAGGAU [ExFMNB.T]
The “apparent KD of K4 kissing-loop reporter” value of the first is 1.6-fold lower: 417 nM for the first, 677 nM for the second.

First: GGAUAGGACAGAGGAUAUCUCUGAGGCAAGAAAACUUGUCUCUAAGGAGAUGACUCAGUGAUGUUGAGAGAAGGCUGUCCUAUCG [FmnBX 12 - #SwitchBubble #StaticStem]
Second: GGGAGUGAUGUUCCCACGUUGUCGGUCCUUCGAGGACCGGUACGGCCGCCACUCGCGACCCAGUGAUGUUGGGAUUCACCGUACC [Exclusion Tryptophan A Gf 13]
The “apparent KD of K4 kissing-loop reporter” value of the first is 2.9-fold lower: 144 nM for the first, 421 nM for the second.

First: AAAUAAAGCAGUCACCCAGUGAUGUUGGAAGGAGCGUGCGAAAGCACAGGUAGGUCGCCAAAACCUAAUACUGGCUGCUAAAUAA [#03 K4 Arginine A Exclusion]
Second: CGUUUAUAGCAGGAUACCAGUGCGGAUAAGGUGCGUUAAUAGUAGAGUGAUGUUCUAAAGUACCCUUGGCAGCUUAGAGUGAGUG [#21 K4 Theophylline B Exclusion]
The “apparent KD of K4 kissing-loop reporter” value of the first is 2.5-fold higher: 357 nM for the first, 144 nM for the second.

Compared with “AACUGGGUUCGUGAUACCAGCUCACACAUGAGUGAUGUUCAUGUAGUGGGCAAAAUGUGGAGCCCUUGGCAGCACUGUGACCACG [XTheo-B2]”, “CCAUCGCUAUUCGAUACCAGCUACUUAGUGAUGUUAAGUUUUUAUCCACUGUAGGUGGAAAGCCCUUGGCAGCGAAUAGUGAUGG [Theophylline B K4 26]” is 5.2-fold higher in “apparent KD of K4 kissing-loop reporter” value: 69 nM for the first, 357 nM for the second.
